The text below walks through data of paper PMC4716839.

Series [1] addresses Rpa heterotrimer (Rpa70/Rpa32/Rpa14) (Mus musculus) (UniProt Q8VEE4+Q62193+Q9CQ71). As to the kind of experiment: bead pull-down. The note with it: Dna2 D278A added after Rpa loading; EMSA: 20 mM Tris-HCl pH 8.0, 80 mM NaCl, 0.3 mM TCEP, 0.2 mg/mL BSA, 2% glycerol, on ice 30 min, 0.075 or 0.3 nM 32P-DNA; 4% native PAGE, 1x TB, 4 C.
The target in series [2] is mouse Rpa heterotrimer (Rpa70, Rpa32, Rpa14) (mouse) (UniProt Q8VEE4).
Sequence of mouse Rpa heterotrimer (Rpa70, Rpa32, Rpa14) (mouse) (Q8VEE4 whole entry, chain 1 of 3): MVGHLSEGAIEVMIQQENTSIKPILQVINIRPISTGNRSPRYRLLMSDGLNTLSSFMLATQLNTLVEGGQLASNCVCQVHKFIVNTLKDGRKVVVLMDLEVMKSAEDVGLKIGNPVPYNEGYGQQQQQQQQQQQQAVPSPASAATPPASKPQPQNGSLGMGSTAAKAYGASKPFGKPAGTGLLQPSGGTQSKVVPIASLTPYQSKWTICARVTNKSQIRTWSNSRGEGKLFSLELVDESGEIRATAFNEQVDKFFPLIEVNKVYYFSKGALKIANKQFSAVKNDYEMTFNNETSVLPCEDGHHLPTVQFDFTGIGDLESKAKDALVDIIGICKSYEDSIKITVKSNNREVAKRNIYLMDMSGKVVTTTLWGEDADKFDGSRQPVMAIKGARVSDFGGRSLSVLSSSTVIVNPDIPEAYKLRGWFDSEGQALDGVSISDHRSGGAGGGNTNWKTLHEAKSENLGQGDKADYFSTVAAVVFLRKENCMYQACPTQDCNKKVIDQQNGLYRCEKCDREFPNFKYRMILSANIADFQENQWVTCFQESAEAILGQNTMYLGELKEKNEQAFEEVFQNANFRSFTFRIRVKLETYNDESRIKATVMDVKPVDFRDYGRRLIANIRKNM
Sequence of mouse Rpa heterotrimer (Rpa70, Rpa32, Rpa14) (mouse) (Q62193 whole entry, chain 2 of 3, further chain): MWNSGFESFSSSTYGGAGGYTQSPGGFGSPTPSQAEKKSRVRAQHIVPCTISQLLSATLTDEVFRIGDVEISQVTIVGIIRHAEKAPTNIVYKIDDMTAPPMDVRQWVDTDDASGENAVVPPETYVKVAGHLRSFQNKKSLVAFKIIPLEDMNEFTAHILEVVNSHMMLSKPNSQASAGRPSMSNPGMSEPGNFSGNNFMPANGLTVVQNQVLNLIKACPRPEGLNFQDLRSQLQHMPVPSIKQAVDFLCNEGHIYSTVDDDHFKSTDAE
Sequence of mouse Rpa heterotrimer (Rpa70, Rpa32, Rpa14) (mouse) (Q9CQ71 whole entry, chain 3 of 3, further chain): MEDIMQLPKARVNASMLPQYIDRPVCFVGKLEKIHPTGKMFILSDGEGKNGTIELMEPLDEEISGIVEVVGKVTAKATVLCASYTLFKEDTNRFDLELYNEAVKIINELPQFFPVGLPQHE

Sequence of Rpa heterotrimer (Rpa70/Rpa32/Rpa14) (Mus musculus) (Q8VEE4 whole entry, chain 1 of 3): as the sequence (Q8VEE4 whole entry, chain 1 of 3) above
Sequence of Rpa heterotrimer (Rpa70/Rpa32/Rpa14) (Mus musculus) (Q62193 whole entry, chain 2 of 3): as the sequence (Q62193 whole entry, chain 2 of 3, further chain) above
Sequence of Rpa heterotrimer (Rpa70/Rpa32/Rpa14) (Mus musculus) (Q9CQ71 whole entry, chain 3 of 3): as the sequence (Q9CQ71 whole entry, chain 3 of 3, further chain) above
Sequence of α1-deleted mouse Dna2 (Q6ZQJ5 1-1056, stated change not applied): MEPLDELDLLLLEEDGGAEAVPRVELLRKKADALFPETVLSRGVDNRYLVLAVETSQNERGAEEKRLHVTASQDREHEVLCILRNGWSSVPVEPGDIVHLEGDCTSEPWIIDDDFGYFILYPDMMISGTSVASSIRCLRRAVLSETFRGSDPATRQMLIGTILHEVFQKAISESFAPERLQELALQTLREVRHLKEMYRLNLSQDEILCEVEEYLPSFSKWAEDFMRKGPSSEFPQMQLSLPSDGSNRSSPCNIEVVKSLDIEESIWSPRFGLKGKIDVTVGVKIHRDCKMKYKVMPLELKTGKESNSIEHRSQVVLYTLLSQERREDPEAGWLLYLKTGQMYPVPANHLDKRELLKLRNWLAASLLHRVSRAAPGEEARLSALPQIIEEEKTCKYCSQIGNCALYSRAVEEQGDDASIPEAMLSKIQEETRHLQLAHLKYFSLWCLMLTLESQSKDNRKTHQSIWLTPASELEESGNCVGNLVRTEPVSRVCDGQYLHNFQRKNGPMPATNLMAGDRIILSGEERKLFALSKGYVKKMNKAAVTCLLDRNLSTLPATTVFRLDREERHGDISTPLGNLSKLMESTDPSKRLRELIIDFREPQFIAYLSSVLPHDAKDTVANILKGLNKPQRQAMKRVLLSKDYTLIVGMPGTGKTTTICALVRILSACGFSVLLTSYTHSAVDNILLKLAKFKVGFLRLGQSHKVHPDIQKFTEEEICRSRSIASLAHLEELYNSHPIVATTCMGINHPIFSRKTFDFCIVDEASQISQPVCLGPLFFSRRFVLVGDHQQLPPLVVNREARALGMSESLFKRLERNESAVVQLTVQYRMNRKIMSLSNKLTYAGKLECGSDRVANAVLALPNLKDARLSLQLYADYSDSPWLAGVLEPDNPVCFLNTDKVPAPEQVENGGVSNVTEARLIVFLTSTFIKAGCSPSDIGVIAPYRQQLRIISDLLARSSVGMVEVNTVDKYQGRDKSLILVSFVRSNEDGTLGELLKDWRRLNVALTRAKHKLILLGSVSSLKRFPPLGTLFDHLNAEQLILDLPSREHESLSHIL

For 3'-(dT)26 overhang DNA, biotinylated, the binding signal (% reduction of bound Rpa by Dna2 D278A) in series [1] amounted to 5.
“α1-deleted mouse Dna2 (from UniProt Q6ZQJ5 1-1056) (enzyme)” gave a nuclease activity: cleavage of the Rpa-coated 5’ stem-loop overhang substrate 5’SL24 (15 nM, 15 nM Rpa), fold reduction compared to intact Dna2 in series [2] of 2 fold.
5'-(dT)26 overhang DNA, biotinylated came in with a binding signal (% reduction of bound Rpa by Dna2 D278A) in series [1] of 30.
